The results in this text go back to IntAct's records for PubMed 21063388.

Sequences and labels used below:
B1: Trinucleotide repeat-containing gene 6A protein (Homo sapiens), Q8NDV7 (parent)
chain: MRELEAKATKDVERNLSRDLVQEEEQLMEEKKKKKDDKKKKEAAQKKATEQKIKVPEQIKPSVSQPQPANSNNGTSTATSTNNNAKRATANNQQPQQQQQQQQPQQQQPQQQPQPQPQQQQPQQQPQALPRYPREVPPRFRHQEHKQLLKRGQHFPVIAANLGSAVKVLNSQSESSALTNQQPQNNGEVQNSKNQSDINHSTSGSHYENSQRGPVSSTSDSSTNCKNAVVSDLSEKEAWPSAPGSDPELASECMDADSASSSESERNITIMASGNTGGEKDGLRNSTGLGSQNKFVVGSSSNNVGHGSSTGPWGFSHGAIISTCQVSVDAPESKSESSNNRMNAWGTVSSSSNGGLNPSTLNSASNHGAWPVLENNGLALKGPVGSGSSGINIQCSTIGQMPNNQSINSKVSGGSTHGTWGSLQETCESEVSGTQKVSFSGQPQNITTEMTGPNNTTNFMTSSLPNSGSVQNNELPSSNTGAWRVSTMNHPQMQAPSGMNGTSLSHLSNGESKSGGSYGTTWGAYGSNYSGDKCSGPNGQANGDTVNATLMQPGVNGPMGTNFQVNTNKGGGVWESGAANSQSTSWGSGNGANSGGSRRGWGTPAQNTGTNLPSVEWNKLPSNQHSNDSANGNGKTFTNGWKSTEEEDQGSATSQTNEQSSVWAKTGGTVESDGSTESTGRLEEKGTGESQSRDRRKIDQHTLLQSIVNRTDLDPRVLSNSGWGQTPIKQNTAWDTETSPRGERKTDNGTEAWGSSATQTFNSGACIDKTSPNGNDTSSVSGWGDPKPALRWGDSKGSNCQGGWEDDSAATGMVKSNQWGNCKEEKAAWNDSQKNKQGWGDGQKSSQGWSVSASDNWGETSRNNHWGEANKKSSSGGSDSDRSVSGWNELGKTSSFTWGNNINPNNSSGWDESSKPTPSQGWGDPPKSNQSLGWGDSSKPVSSPDWNKQQDIVGSWGIPPATGKPPGTGWLGGPIPAPAKEEEPTGWEEPSPESIRRKMEIDDGTSAWGDPSKYNYKNVNMWNKNVPNGNSRSDQQAQVHQLLTPASAISNKEASSGSGWGEPWGEPSTPATTVDNGTSAWGKPIDSGPSWGEPIAAASSTSTWGSSSVGPQALSKSGPKSMQDGWCGDDMPLPGNRPTGWEEEEDVEIGMWNSNSSQELNSSLNWPPYTKKMSSKGLSGKKRRRERGMMKGGNKQEEAWINPFVKQFSNISFSRDSPEENVQSNKMDLSGGMLQDKRMEIDKHSLNIGDYNRTVGKGPGSRPQISKESSMERNPYFDKDGIVADESQNMQFMSSQSMKLPPSNSALPNQALGSIAGLGMQNLNSVRQNGNPSMFGVGNTAAQPRGMQQPPAQPLSSSQPNLRAQVPPPLLSPQVPVSLLKYAPNNGGLNPLFGPQQVAMLNQLSQLNQLSQISQLQRLLAQQQRAQSQRSVPSGNRPQQDQQGRPLSVQQQMMQQSRQLDPNLLVKQQTPPSQQQPLHQPAMKSFLDNVMPHTTPELQKGPSPINAFSNFPIGLNSNLNVNMDMNSIKEPQSRLRKWTTVDSISVNTSLDQNSSKHGAISSGFRLEESPFVPYDFMNSSTSPASPPGSIGDGWPRAKSPNGSSSVNWPPEFRPGEPWKGYPNIDPETDPYVTPGSVINNLSINTVREVDHLRDRNSGSSSSLNTTLPSTSAWSSIRASNYNVPLSSTAQSTSARNSDSKLTWSPGSVTNTSLAHELWKVPLPPKNITAPSRPPPGLTGQKPPLSTWDNSPLRIGGGWGNSDARYTPGSSWGESSSGRITNWLVLKNLTPQIDGSTLRTLCMQHGPLITFHLNLPHGNALVRYSSKEEVVKAQKSLHMCVLGNTTILAEFASEEEISRFFAQSQSLTPSPGWQSLGSSQSRLGSLDCSHSFSSRTDLNHWNGAGLSGTNCGDLHGTSLWGTPHYSTSLWGPPSSSDPRGISSPSPINAFLSVDHLGGGGESM
B2: Trinucleotide repeat-containing gene 6C protein (Homo sapiens), Q9HCJ0-1 (parent)
chain: MATGSAQGNFTGHTKKTNGNNGTNGALVQSPSNQSALGAGGANSNGSAARVWGVATGSSSGLAHCSVSGGDGKMDTMIGDGRSQNCWGASNSNAGINLNLNPNANPAAWPVLGHEGTVATGNPSSICSPVSAIGQNMGNQNGNPTGTLGAWGNLLPQESTEPQTSTSQNVSFSAQPQNLNTDGPNNTNPMNSSPNPINAMQTNGLPNWGMAVGMGAIIPPHLQGLPGANGSSVSQVSGGSAEGISNSVWGLSPGNPATGNSNSGFSQGNGDTVNSALSAKQNGSSSAVQKEGSGGNAWDSGPPAGPGILAWGRGSGNNGVGNIHSGAWGHPSRSTSNGVNGEWGKPPNQHSNSDINGKGSTGWESPSVTSQNPTVQPGGEHMNSWAKAASSGTTASEGSSDGSGNHNEGSTGREGTGEGRRRDKGIIDQGHIQLPRNDLDPRVLSNTGWGQTPVKQNTAWEFEESPRSERKNDNGTEAWGCAATQASNSGGKNDGSIMNSTNTSSVSGWVNAPPAAVPANTGWGDSNNKAPSGPGVWGDSISSTAVSTAAAAKSGHAWSGAANQEDKSPTWGEPPKPKSQHWGDGQRSNPAWSAGGGDWADSSSVLGHLGDGKKNGSGWDADSNRSGSGWNDTTRSGNSGWGNSTNTKANPGTNWGETLKPGPQQNWASKPQDNNVSNWGGAASVKQTGTGWIGGPVPVKQKDSSEATGWEEPSPPSIRRKMEIDDGTSAWGDPSNYNNKTVNMWDRNNPVIQSSTTTNTTTTTTTTTSNTTHRVETPPPHQAGTQLNRSPLLGPGRKVSSGWGEMPNVHSKTENSWGEPSSPSTLVDNGTAAWGKPPSSGSGWGDHPAEPPVAFGRAGAPVAASALCKPASKSMQEGWGSGGDEMNLSTSQWEDEEGDVWNNAASQESTSSCSSWGNAPKKGLQKGMKTSGKQDEAWIMSRLIKQLTDMGFPREPAEEALKSNNMNLDQAMSALLEKKVDVDKRGLGVTDHNGMAAKPLGCRPPISKESSVDRPTFLDKDGGLVEEPTPSPFLPSPSLKLPLSHSALPSQALGGIASGLGMQNLNSSRQIPSGNLGMFGNSGAAQARTMQQPPQPPVQPLNSSQPSLRAQVPQFLSPQVQAQLLQFAAKNIGLNPALLTSPINPQHMTMLNQLYQLQLAYQRLQIQQQMLQAQRNVSGSMRQQEQQVARTITNLQQQIQQHQRQLAQALLVKQPPPPPPPPHLSLHPSAGKSAMDSFPSHPQTPGLPDLQTKEQQSSPNTFAPYPLAGLNPNMNVNSMDMTGGLSVKDPSQSQSRLPQWTHPNSMDNLPSAASPLEQNPSKHGAIPGGLSIGPPGKSSIDDSYGRYDLIQNSESPASPPVAVPHSWSRAKSDSDKISNGSSINWPPEFHPGVPWKGLQNIDPENDPDVTPGSVPTGPTINTTIQDVNRYLLKSGGKLSDIKSTWSSGPTSHTQASLSHELWKVPRNSTAPTRPPPGLTNPKPSSTWGASPLGWTSSYSSGSAWSTDTSGRTSSWLVLRNLTPQIDGSTLRTLCLQHGPLITFHLNLTQGNAVVRYSSKEEAAKAQKSLHMCVLGNTTILAEFAGEEEVNRFLAQGQALPPTSSWQSSSASSQPRLSAAGSSHGLVRSDAGHWNAPCLGGKGSSELLWGGVPQYSSSLWGPPSADDSRVIGSPTPLTTLLPGDLLSGESL
B3: Protein Gawky (Drosophila melanogaster (Fruit fly)), Q8SY33 (parent)
chain: MREALFSQDGWGCQHVNQDTNWEVPSSPEPANKDAPGPPMWKPSINNGTDLWESNLRNGGQPAAQQVPKPSWGHTPSSNLGGTWGEDDDGADSSSVWTGGAVSNAGSGAAVGVNQAGVNVGPGGVVSSGGPQWGQGVVGVGLGSTGGNGSSNITGSSGVATGSSGNSSNAGNGWGDPREIRPLGVGGSMDIRNVEHRGGNGSGATSSDPRDIRMIDPRDPIRGDPRGISGRLNGTSEMWGHHPQMSHNQLQGINKMVGQSVATASTSVGTSGSGIGPGGPGPSTVSGNIPTQWGPAQPVSVGVSGPKDMSKQISGWEEPSPPPQRRSIPNYDDGTSLWGQQTRVPAASGHWKDMTDSIGRSSHLMRGQSQTGGIGIAGVGNSNVPVGANPSNPISSVVGPQARIPSVGGVQHKPDGGAMWVHSGNVGGRNNVAAVTTWGDDTHSVNVGAPSSGSVSSNNWVDDKSNSTLAQNSWSDPAPVGVSWGNKQSKPPSNSASSGWSTAAGVVDGVDLGSEWNTHGGIIGKSQQQQKLAGLNVGMVNVINAEIIKQSKQYRILVENGFKKEDVERALVIANMNIEEAADMLRANSSLSMDGWRRHDESLGSYADHNSSTSSGGFAGRYPVNSGQPSMSFPHNNLMNNMGGTAVTGGNNNTNMTALQVQKYLNQGQHGVAVGPQAVGNSSAVSVGFGQNTSNAAVAGAASVNIAANTNNQPSGQQIRMLGQQIQLAIHSGFISSQILTQPLTQTTLNLLNQLLSNIKHLQAAQQSLTRGGNVNPMAVNVAISKYKQQIQNLQNQINAQQAVYVKQQNMQPTSQQQQPQQQQLPSVHLSNSGNDYLRGHDAINNLQSNFSELNINKPSGYQGASNQQSRLNQWKLPVLDKEINSDSTEFSRAPGATKQNLTANTSNINSLGLQNDSTWSTGRSIGDGWPDPSSDNENKDWSVAQPTSAATAYTDLVQEFEPGKPWKGSQIKSIEDDPSITPGSVARSPLSINSTPKDADIFANTGKNSPTDLPPLSLSSSTWSFNPNQNYPSHSWSDNSQQCTATSELWTSPLNKSSSRGPPPGLTANSNKSANSNASTPTTITGGANGWLQPRSGGVQTTNTNWTGGNTTWGSSWLLLKNLTAQIDGPTLRTLCMQHGPLVSFHPYLNQGIALCKYTTREEANKAQMALNNCVLANTTIFAESPSENEVQSIMQHLPQTPSSTSSSGTSGGNVGGVGTSANNANSGSAACLSGNNSGNGNGSASGAGSGNNGNSSCNNSAAGGGSSSNNTITTVANSNLVGSSGSVSNSSGVTANSSTVSVVSCTASGNSINGAGTANSSGSKSSANNLASGQSSASNLTNSTNSTWRQTSQNQALQSQSRPSGREADFDYISLVYSIVDD

Variants of B1 are the subject of the first assay. Particulars: with pabp_drome pAbp.
Target sequence in this assay (P21187 whole entry): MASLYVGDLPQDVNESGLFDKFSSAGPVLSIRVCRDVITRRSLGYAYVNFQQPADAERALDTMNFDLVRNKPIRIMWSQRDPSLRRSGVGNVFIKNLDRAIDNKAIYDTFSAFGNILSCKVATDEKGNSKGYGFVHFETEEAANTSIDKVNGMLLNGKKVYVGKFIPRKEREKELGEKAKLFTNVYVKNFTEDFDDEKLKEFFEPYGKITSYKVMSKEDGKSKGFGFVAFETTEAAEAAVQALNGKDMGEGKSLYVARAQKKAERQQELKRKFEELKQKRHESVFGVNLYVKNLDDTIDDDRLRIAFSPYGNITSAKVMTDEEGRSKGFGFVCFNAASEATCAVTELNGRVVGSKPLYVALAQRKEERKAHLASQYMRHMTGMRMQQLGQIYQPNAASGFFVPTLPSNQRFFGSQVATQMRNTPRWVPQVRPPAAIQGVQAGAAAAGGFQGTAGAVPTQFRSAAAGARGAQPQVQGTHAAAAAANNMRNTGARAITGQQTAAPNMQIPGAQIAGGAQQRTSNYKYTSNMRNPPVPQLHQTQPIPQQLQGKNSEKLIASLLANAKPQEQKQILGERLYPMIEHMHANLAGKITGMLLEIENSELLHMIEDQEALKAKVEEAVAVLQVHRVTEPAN
On to F1612A, for which the “effect of a mutation on the interaction” value is listed as “disrupting interaction”.

Variants of B1 are the subject of the next assay. To be noted: with pabp1_human PABPC1, P11940.
Target sequence in this assay (P11940 whole entry): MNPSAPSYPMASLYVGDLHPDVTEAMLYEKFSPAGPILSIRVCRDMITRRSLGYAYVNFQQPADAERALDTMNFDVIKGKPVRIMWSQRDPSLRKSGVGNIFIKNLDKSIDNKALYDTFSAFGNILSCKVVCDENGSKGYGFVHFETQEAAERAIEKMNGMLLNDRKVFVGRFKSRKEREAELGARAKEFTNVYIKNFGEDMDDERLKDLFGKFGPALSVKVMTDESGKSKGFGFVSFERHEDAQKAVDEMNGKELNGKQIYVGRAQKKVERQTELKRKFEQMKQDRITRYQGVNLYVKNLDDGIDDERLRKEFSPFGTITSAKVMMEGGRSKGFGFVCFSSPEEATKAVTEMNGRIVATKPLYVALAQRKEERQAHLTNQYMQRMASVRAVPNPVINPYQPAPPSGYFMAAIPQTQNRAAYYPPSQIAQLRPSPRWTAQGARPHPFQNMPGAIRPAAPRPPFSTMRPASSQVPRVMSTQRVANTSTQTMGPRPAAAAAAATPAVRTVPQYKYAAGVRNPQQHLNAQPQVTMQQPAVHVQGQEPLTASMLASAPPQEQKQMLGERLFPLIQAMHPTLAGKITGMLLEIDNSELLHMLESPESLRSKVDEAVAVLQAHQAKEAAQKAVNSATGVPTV
Take F1612A: the “effect of a mutation on the interaction” value was “disrupting interaction”.

In another assay the parent is B2. Particulars: with pabp_drome pAbp.
Target sequence in this assay (P21187 whole entry): as the sequence (P21187 whole entry) above
Turning to F1389A, the “effect of a mutation on the interaction” value was “disrupting interaction”.

Another assay covers variants of B2. To be noted: with pabp1_human PABPC1, P11940.
Target sequence in this assay (P11940 whole entry): as the sequence (P11940 whole entry) above
In the case of F1389A, the “effect of a mutation on the interaction” value is given as “disrupting interaction”.

In the next assay the parent is B3. Particulars: with pabp_drome pAbp.
Target sequence in this assay (P21187 whole entry): as the sequence (P21187 whole entry) above
On to V958P, for which the “effect of a mutation on the interaction” value is listed as “increasing interaction”.
Regarding Q959P, the “effect of a mutation on the interaction” value is on record as “increasing interaction”.

In a further assay the parent is B3. Particulars: with pabp_drome pAbp. This is another data set of the same source.
Target sequence in this assay (P21187 whole entry): as above
Regarding E962Q, the “effect of a mutation on the interaction” value was “increasing interaction”.

Another assay covers variants of B3. Particulars: with pabp_drome pAbp. The source holds these as a separate data set.
Target sequence in this assay (P21187 whole entry): as above
On to F961A, for which the “effect of a mutation on the interaction” value was “disrupting interaction”.
